Among the data in article PMC12043510 are Kd values, retold here.

By Kd is commonly meant the equilibrium constant for the complex coming apart. A higher Kd goes with weaker binding.

Assay [1] deals with GST–CP (rice stripe virus (RSV)). The assay is described as follows: MST.
Assay [2] has as its target MBP–P2^1–786 (rice dwarf virus (RDV)). As to the kind of experiment: MST.

Regarding “MBP–RBRL (from UniProt Q75LV6 1-540) (enzyme)”, the Kd in assay [1] turned out to be 5.28 nM; in assay [2], 183 nM.
